Assay results reported in PMC8677749.

Target: HBV core protein (Cp) dimer (Hepatitis B virus (strain NC_003977.1, subtype ayw?)) (UniProt P03146)
Experiment: NCP assembly, SEC-MALLS
Details: 20 mM HEPES pH 7.5, 250 mM NaCl, 5 mM DTT, up to 0.15 M GuHCl, ~20 C; 1 nM RNA, Cp dimer titrated to 1.2 uM

HBV core protein (Cp) dimer (Hepatitis B virus (strain NC_003977.1, subtype ayw?)), sequence (P03146 whole entry): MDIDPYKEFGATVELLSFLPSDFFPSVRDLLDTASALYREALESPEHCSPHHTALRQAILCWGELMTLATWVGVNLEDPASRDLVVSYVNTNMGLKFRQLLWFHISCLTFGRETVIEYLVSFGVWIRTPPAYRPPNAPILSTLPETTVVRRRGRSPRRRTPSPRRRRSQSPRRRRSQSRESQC

With HBV JQ707375.1 gRNA (pgRNA) wild type as the substance, how does the binding signal (% RNA yield after RNase A) read?
The binding signal (% RNA yield after RNase A) was 81.
